Experiment: label from the status in PepcDB records

| Sequence | protein production |
| --- | --- |
| MSQALPVRDQGRDQGIFAGTLPPAPPKFKWTRLDTYTWAIIAVFALVTRFTGLSSATASGTPVFDEKHYVPQAWDMVRSWINPITGGIESNPGYGLVVHPPLAKQLEALGEWVFGYTPLGWRIMVAIFGTLTIFAIMAIARRLSGSTMVTFIAGILALADGVLLVSSRFGMLDIFLVFFITAAAWALIRDHQQMHQRLNDLLLTNGQITKDFGPRFGFRWWRFTTGVFLGLALSVKWSGLYYIAFFGLTSVFLDLWLRKRYGVRRYVTGTLKNDVIPALGSLVIIPALLYIWSWRAWFASETSVYRHAKTDGTITEDSILQLFPESIAGWIHYHISVLEFHGSLTTSSGHSHPWDSKPWAWLVSGRPILYFSSTDISCDVGGTCRRMIYLFGTPAIWWLTVPVILWALWSFFARRSRGYVVPLVAFAAGFLPWLAAYDRQMYFFYATALVPFTIIMLALACGELWGRGKMTPTGLTRGSMAVVTYISLVVMMFLAFSPLFYGFVIPDYVYESLMWFPSWR | not failed |
| MKGKLQHIHPLGMSIILGTLFARFATSMSIPFLAIYLTTVKGVSAGMTGAIIGTSALVGVFASFIGGNLSDRFGRKTIMLWSMIVWIFVFIGFSLADHVLSFFLLNALNGLCRSFFEPTSRALLSDLTKPEYRLLVYNLRYGAINVGVAIGPIVGLQIGSAKSTIPFLVAAGVYILYTAILAFQFKKYPMEKKKVSTEKPVTMLNAMRILRKDIVFLVALVGIILSNCGFSHLTTTVSQYFANAHIFEDGVKLFSYMLALNAIVVVIIQYPVIQMCKKYTPLTSIMVGTLFVSGGLFGFGIVESMLGAAVCTIIFTIGEVLMFSMTDVFIDDIAVAHLKGTYFGAMGFSGIGAVIGPWFGGVLLDYYGYQNGFAVFSALAIFSTVAFPVLLVTKGLSKKRYDRNSNIEMHAK | failed |
| MSDEWIKIFESDFYVREMIKVWDEGEKWANWIDEVVSKYKLEKKVLDIPCGIGRVSYFLANRGYKVTGIDISERMISMARSNIQNGKFIVGDMRKIKEIIGNEKYDLVINIYNSLGYYSEEDDLKILESLRDSTRKIVVINLDNRDYIIYNRPNEYYTYIPPYLVYSKVEFEQETSRLKIYRKYYLNDKEVGEMIYEQRLYSIHEILALLKKAGLQPIEVLSGYSWKKFSIMDPEMTIIATPA | failed |
| MPCPPNVSMMLGKEGPAADSERVTLWRDHHLSHTHAVLWTVILVATVGDILLTMTGLTVGLQEGNAVVSTMLAEFGLAGLWLVKFGAMLWLVAGWRLLSERNATVFLALFAVVTLAVVAYNSVTILQYRGVITAVAGI | failed |
| MELVHGISTHFIQSKKFKTNKITVRFTAPLSLDTIAGHMLSASMLETANQMYPTSQDLRRHLASLYGTDMSTNCFRRGQSHIIELTFTYVRDEFLSRKNVLTSQILELVKETLFSPVVVDNGFDPALFEIEKKQ | failed |
| MADQGLEESNPMDLSKHPSGIVPTPHSQVIYKMPPRIAAIRLVSSHREVYEPCDDSFALVDALLADRTNLIEHNPKICMEIGCGSGYVITSLILLLQNEVPGVHYLAIDTNPIATRVTKETLEAHGVNADVICADLATGLEKRLAGSVDVIVVNPPYVPTPEYEVGMEGIASAWAGGENGRTVIDKILPVVDLLLSEKGWFYLVTLTSNFPAEICLMMRKKGYASRIVVQRSTEEENLVILKFWRDKDEESQDKETSSSSFVSQFSKSLSSLMEKQWR | failed |
| MRRLPTFGWALLVSIWAGLVGGAVIREPSVDLVPLYAVICQLLGLIAAYGTMRERSHILESVHRPGRVGMFIIILFFVMVPLTTVFALVLGDASVAGVATQWVSYLVGLGIALYVAFAGGFDRAWEKYT | failed |
| MDYLPVEVIGNILSRLGGARDVVIASATCRKWREACRKHLQTLSFNSADWPFYRDLTTNRLEILITQTIFQTMGLQGLSIMMDDANKFSAATVIAWLMYTRDTLRRLSYNVRTTPNVNILEICGRQKLEALVLAHNSITGVEPSFQRFPCLKSLSLSYVSISALDLNLLLSACPMIESLELVSLEIAMSDAQVTIELSSPTLKSVYFDGISLDKFILEADSIEFLHMKDCVLELFELIGNGTLKHFKLDDVSVIHLDIMETSESLEVVDVNHFTMVWPKFYQMISRSQKLKKLRLWDVVFDDDDEIIDVESIAAGFSHLTHLSLSYDLKDGAAHYSLQGTTQLENVTVLELGWTVINDVFSIWVEELLRRCPNLKKLIIYGVVSETKTQGDCQILATFTWSIVQLMRKYIHVEVQFEYE | failed |
| YDASPAYYLYTSGSTGTPKCVVLNNRATAHVLQETIDFWGINDKDIHLAATPFHHDMSIFDLMAPLSVGGTLVVPTLEEAKSAVAWAELIERYQVSIWCTVPAMVDMLLTSAEPSQLQSIRLINQGGDYVKPSVVQKLREILPNTRLISIGGPTETTIWSIWHEITSEDI | failed |
| MLLRRRLFVLCILILTITAVQSFVHVLSGDGLSALDLALTAVFVPLAAWLAQSFCTLTAGALMIATQRFSWRRRRDELADIASGLVDSLPRVAIVMPVYNEDSGRVFAGVAAMRDELRALGVAKRFDVFILSDSTDGDNWLAEEEAWDSERHRVGDSPRLFYRRRFRNIKRKTGNIGQFVERHGAAYGYMVVLDADSLMSGEAIWVLTRRMDAERRTALIQAPPKLIMGDTPFSRMLQFAGDVYGPLSSAGLAFWAGGEGNYWGHNAIIRVDAFAACCGLPALPGRAPLGGDILSHDFVEAALLRRAGWKVRIAWDLGGSYEEPPPTMEDFMVRDRRWCQGNMQHGRILFARGLHGVSRSHLLIGIMSYVTSPLWLIFLILSGMQAWTLARAKAVYFQQGVPWATWPISREEEAAYLLAGTLGMLFLPKIWGLLLAIFHGPTRRAHGGGLALVGGFFLENLISALVAPIMMIRHSQFVVSILTGAKVDWKPQRRTADKGNLRVALASYKDVMVIGIAAVAFVLWAAPSLGVWLSPVLAGLLGAPFLAMALGDPDLGAALRRRGLLVIPEEITPPSVLTRMEERLAARPPTAEAPESRFSRVILDPGTNARHRALIQATGEAPTAPVEVMERAVGLAIHLGPEALGKDERKALLECPERLEQLHVACWARRLEDRGGVAPG | failed |
| LYLAGIGQYAALLEAGFARARSAEETVRLLVTSYIDWVVANPDWARFILHSRGRVEAGELGERLRADNQAHFARIHAALAGYRAEGLFREMPDDCFASVVIGPAHDLARQWLAGRTRVALADCRELLAQVAWDSVRAA | not failed |
| QKGRVETRRVVHIMDFQRGKNLRYQLLQLVEPFGVISNHLILNKINEAFIEMATTEDAQAAVDYYTTTPALVFGKPVRVHLSQKYKRIK | not failed |
| MNVLLGSVVIFATFVTLCNASCYFIPNEGVPGDSTRKCMDLKGNKHPINSEWQTDNCETCTCYETEISCCTLVSTPVGYDKDNCQRIFKKEDCKYIVVEKKDPKKTCSVSEWII | not failed |
| MKNFLETIEDMILIINREGRLLYANTAVPKKLGYPHEELMSMHILTITSAGKMAEGEKILAELFAGKKESLPLSLEKKEGTSIPAKARIWQGKWHNEPCLFAIIKDLSKEERASSPPFLEPDEIHTGISGAAWCEKPDFASDISCELKDEEPSKPRVLIVDDQLFNLKLLESALKEDYIVMTADNGIEALELATGKSQPDIILLDIIMPVMDGYEVCIRLREMPETRDIPVIFLSALKNEKNEEYALQLGVVDYITKPFSLPIIKGRLRNHVEQKKYRDRQKENSYIDELTQIANRRKFNETVTIEWNRARRNGNSLSVLMIDVDCFKKYNDFYGHLEGDKCLYKIAQTLKSNVKRSSDLVARWGGEEFACVLTDTDRIGAMLVGERLRRAVVKLNIPSEISDVDRVVTASIGVATALPAVDNSLEELLHKADMALYKAKKTGRNCVCTP | failed |
| MFSLSFPSSSSALLPSLVAFDSSRRLSLQPKKLNRLQSHLFSPQHLSFSQSNVSRYRAFCVSSSSPPEGTVSVVDFHEKDWSFLESMEIDSTEHTQKIERIIKAGELSESSRVLVSISSETFVDRLVESSPSQLLLIVHDSLFTLACIKEKYDKVKCWQGEMIYVPEKWSPLDAVFLYFLPALPFDLDELFKTLSQRCSSGARVVISHPQGRLGLEQQRKEFSDVVVSDLPDESTLSNVAEKHSFELTQFVDEQGLYLAVLKSSKQ | failed |
| SDQTRYSRLANITKIINTKLELREVLQRVTMAISEEIVRCDAVGIYLPEEDGTFRGFAGKPETINGVTLDTQVIDPGIDLLAKEVIETKKTIYIPDTSKDYRPDPRPVDAFKIKSLLALPISFGQELFGLVFLFDYGVPMNLTDSEIQSVEAYVNMAAVAIQNAKNLTQKENLIAEKQLLLNVTRDLSVCSS | failed |
| MMIKIIREMPHGVAALCLIQAFSTFSYAVQYSSLALFITKQLGIANLSANSIVGLFLSFSYIFQLIGGVIGSRFISNRLLFVTTILIQNMGLFFLAQANPSLLNIGLSLFMVGSGLNVTSSNSMLTQCFIPQDDRRESAFFLSYAGMNVGYCIGYIACGFFDYSNQYQYLLYASILTNSIALLIIIKNWAYLGDKNFPLPNLTKRNWYFIKNILAIAFITFLIPFMRVCFEFANFCNGLVIITCLFMFLIIFILGLKQKSSSDRKKMMAYLILAISSVLFWMIYLTGPMGVTLFVKNNVDKHLFSFELATQWIKNINPVVIIFGAPIMSMLINKLKAKGFHVSAPVQFSCSFVFLALSFLCLIFGIICSNSYGYISIYWIIGHHILQGMSELLLGPVGYALIGRIAPPKLQGILMGTWMLVIGVAASFSQYFSNAMVQSESVDPLITNQDFLTAFKQLGLWSLLCAALLYFVSGKLTRIINGTKDNKSVNESKALPMPYSN | failed |
| METISKEFKSKVSLFWEAFNKNDFESAKTQCNQMKKSFSDEANPHYLLGIIYFEEKRFDKSIIELKLALKKDSERKLGGYIYYVIGLNYSKNTFSNMENLNSIYDIELARNAFESALTYENFNESNITELSQIYRNKFKLIQLFQKGLKKFPTKTSFYIKLSAIYKKNGNISERESLLLDAKENIKSFHILFELGELYLEKSQYKCSREHFYLAEKLREGSGLEFAVQVMIGNTHVNEGNPNLANEYYINAFHKEKNSCNFWFGLFGILASSAETSFADLKNILEEMEVTSQLTIEEWYGEMPLYYGSNYFSFDFPIDEKHLINRLNLFKKQQRDTDILGKIELIKASLYEFSSEDTKYIKCLKSAINYFSQHSYDFIFNKLAARYDYLLSHLQEEGKSVNTLINEIVDYLEDDYSFRKEYIEYLPTIVTILFEEKKHKKIIEIKNIFTEKQIDKADIWFHVGYAFNELGRPKESKYAYECNIKINGECTSTHNNLALLLENEGKNSDAVAMFQKALMINVDDEKLQSNLQNALDKQKAKSLLTYKNEAIDKSFVGAVGLLKSETFFSMETLLNFIDRSKKENSFNDGILSIQDEMFPDLLRTNLVKSLELKNDWLIKNYIALTEEIDEYGIPYYQVNPYLEPEIVKLKRMTVESELPKEWTEGIGNITIFKLDELDYFSIKHKISKINKKFKPLVMRDFNELIFNHLVGNRKAVVVLSGSFVELLLTYYCEKKRIKAVEYTCKDSAKPKKKKLYDCVLFDLISFIEEKRIFGNDFFLLSNLSRVYRNFIHPGVELKNSLDKSKSDLCFISSLEILKKII | failed |
| MTKFNWHESAEKKWDSSAEFWNQNSQEMWDSGSRSTIIPFFEQYVKKEAQVLDVGCGDGYGTYKLSRAGYKAVGVDISEVMIQKGKERGEGPDLSFIKGDLSSLPFENEQFEAIMAINSLEWTEEPLRALNEIKRVLKSDGYACIAILGPTAKPRENSYPRLYGKDVVCNTMMPWEFEQLVKEQGFKVVDGIGVYKRGVNEKMLGQLSTELQQSLTFLWVFMLKKHKEMKEFLGGK | failed |
| LGTVIQENSRSGGEQSANFFVNGPLAENLLLQVYGQYTAREEDDIDYGYEDKDMQSISSKLIYQINDRHSVQLEGGTSAQSRRGNVGLSVPTTGCRRGCEDSLNEYRRNYVTLSHTGEWELLGNSDTYLQREESENKSREMTIVNTTFKSSLVKGLGAHTLTTGVDATHAELEDFTSNKASSKTKASNTQWAVFIEDEWKIAEPFSLTLGGRLDHDENYGAHFSPRVYGVWRVAPAWTVKGGVATGFRSPQLREITPGWAQVSGGGNIYGNPDLDPETSLNKEISVLYQGDSGLDVTLTAFHNEFKDKITRVVCPDTICTDGPNQWGADPTYRINVDEAVTQGVEATLAKPLTETIYLSSSYTFTDSEQKTGEYKGMPLQQLPKHLFNVDVTWQTTDNLESWTKVTYRGKEMDPVTGPSRNSIVEPAYTFVDAGVTYQLTDNTKIKGAIYNLFDEDINYKEYGYVEDGRRYWLGLDVAF | failed |

From a protein production outcome set (Wang et al. 2014)
